The source of these data is patent US20240252534A1.

As usually defined, the Kd is the free concentration of one partner at which half of the binding sites on the other are occupied at equilibrium, for simple one-to-one binding.

In assay [1] the target is Recombinant PSMA-His (sino biologicals) (UniProt Q04609). Kind of assay: SPR, Biacore T200, pH 6; antibody captured on Protein A chip, PSMA-His as analyte, 1:1 Langmuir fit. Background: Surface plasmon resonance follows binding to a sensor surface in real time, without labels.
Recombinant PSMA-His (sino biologicals), sequence (Q04609 44-750 limits assumed): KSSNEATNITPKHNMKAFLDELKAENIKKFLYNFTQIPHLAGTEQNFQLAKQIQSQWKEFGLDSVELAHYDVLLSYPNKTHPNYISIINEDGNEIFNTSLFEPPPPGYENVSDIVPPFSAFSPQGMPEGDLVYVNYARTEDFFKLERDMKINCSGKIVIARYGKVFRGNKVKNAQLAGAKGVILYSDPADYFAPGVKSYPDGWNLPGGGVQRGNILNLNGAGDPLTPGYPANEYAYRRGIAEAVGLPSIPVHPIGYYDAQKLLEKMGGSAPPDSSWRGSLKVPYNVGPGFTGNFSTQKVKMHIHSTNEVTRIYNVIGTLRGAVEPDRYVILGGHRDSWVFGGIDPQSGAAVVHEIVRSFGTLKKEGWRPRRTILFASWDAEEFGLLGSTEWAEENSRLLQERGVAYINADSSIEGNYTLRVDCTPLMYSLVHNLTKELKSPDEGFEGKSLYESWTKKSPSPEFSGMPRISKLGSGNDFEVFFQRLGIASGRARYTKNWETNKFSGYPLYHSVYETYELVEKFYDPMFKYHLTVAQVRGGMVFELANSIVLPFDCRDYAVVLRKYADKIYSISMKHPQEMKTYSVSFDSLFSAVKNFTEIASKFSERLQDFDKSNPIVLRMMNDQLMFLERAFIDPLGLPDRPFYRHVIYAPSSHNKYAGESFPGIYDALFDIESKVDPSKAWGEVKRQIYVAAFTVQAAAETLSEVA
For assay [2] the target is unchanged. The experiment in a line: SPR, Biacore T200, pH 7; antibody captured on Protein A chip, PSMA-His as analyte, 1:1 Langmuir fit.
For assay [3] the target is unchanged. Kind of assay: SPR, Biacore T200, pH 6.5; antibody captured on Protein A chip, PSMA-His as analyte, 1:1 Langmuir fit.
Assay [4] has the same target. The experiment in a line: SPR, Biacore T200, pH 7.4; antibody captured on Protein A chip, PSMA-His as analyte, 1:1 Langmuir fit.

Take Anti-PSMA antibody J591 (UPenn): the Kd was 0.551 nM in assay [1], 2.54 nM in assay [2], 0.984 nM in assay [3] and 2.76 nM in assay [4].
